Patent publication US20170152293

Test system: T1, KZ-sarcin recombinant protein
T1 sequence: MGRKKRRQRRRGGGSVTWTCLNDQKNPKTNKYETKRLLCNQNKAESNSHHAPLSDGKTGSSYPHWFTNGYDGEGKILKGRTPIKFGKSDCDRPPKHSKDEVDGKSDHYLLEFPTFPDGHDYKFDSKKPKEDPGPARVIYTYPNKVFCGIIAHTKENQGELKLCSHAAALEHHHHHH

Substance: caspase-3 (Sigma Chem. Co, U.S.A.)
- hydrolysis of KZ-sarcin by caspase-3, SDS-PAGE (room temperature, 15 minutes): KZ-sarcin recombinant protein was hydrolyzed by caspase-3 into two fragments of 12 kb and 8.5 kb
